From patent publication US20230365662A1 come the findings set out here.

Where “and” joins values, the source holds several entries; their conditions need not be identical. Equal values may be shown once.

B1: parental mouse (KB001) Fab FASEBA, VL variant L55R/S51G (Fab, V domains shown)
VH: EVQLKQSGPGLVAPSQSLSITCTVSGFSLSIYSVHWVRQPPGKGLEWLGMIWGGGSSDYNSALKSRLSISKDNSKSQVFLKMNSLQTDDTAMYYCARNGNFYAMDYWGQGTSVTVSS
VL: QIVLTQSPAIMSASLGERVTMTCTASSSVSSSFLHWYQQKPGSSPQLWIYGTSNRASGVPARFSGSGSGTSYSLTISSMEAEDAATYYCHQYHHSPYIYTFGGGTKLEIK
B2: parental mouse (KB001) Fab FASEBA, VL variant A56V (Fab, V domains shown)
VH: EVQLKQSGPGLVAPSQSLSITCTVSGFSLSIYSVHWVRQPPGKGLEWLGMIWGGGSSDYNSALKSRLSISKDNSKSQVFLKMNSLQTDDTAMYYCARNGNFYAMDYWGQGTSVTVSS
VL: QIVLTQSPAIMSASLGERVTMTCTASSSVSSSFLHWYQQKPGSSPQLWIYSTSNLVSGVPARFSGSGSGTSYSLTISSMEAEDAATYYCHQYHHSPYIYTFGGGTKLEIK
B3: parental mouse (KB001) Fab FASEBA, VL variant L55Q (Fab, V domains shown)
VH: EVQLKQSGPGLVAPSQSLSITCTVSGFSLSIYSVHWVRQPPGKGLEWLGMIWGGGSSDYNSALKSRLSISKDNSKSQVFLKMNSLQTDDTAMYYCARNGNFYAMDYWGQGTSVTVSS
VL: QIVLTQSPAIMSASLGERVTMTCTASSSVSSSFLHWYQQKPGSSPQLWIYSTSNQASGVPARFSGSGSGTSYSLTISSMEAEDAATYYCHQYHHSPYIYTFGGGTKLEIK
B4: parental mouse (KB001) Fab FASEBA, VL variant A56R (Fab, V domains shown)
VH: EVQLKQSGPGLVAPSQSLSITCTVSGFSLSIYSVHWVRQPPGKGLEWLGMIWGGGSSDYNSALKSRLSISKDNSKSQVFLKMNSLQTDDTAMYYCARNGNFYAMDYWGQGTSVTVSS
VL: QIVLTQSPAIMSASLGERVTMTCTASSSVSSSFLHWYQQKPGSSPQLWIYSTSNLRSGVPARFSGSGSGTSYSLTISSMEAEDAATYYCHQYHHSPYIYTFGGGTKLEIK
B5: parental mouse (KB001) Fab FASEBA, VL variant A56T (Fab, V domains shown)
VH: EVQLKQSGPGLVAPSQSLSITCTVSGFSLSIYSVHWVRQPPGKGLEWLGMIWGGGSSDYNSALKSRLSISKDNSKSQVFLKMNSLQTDDTAMYYCARNGNFYAMDYWGQGTSVTVSS
VL: QIVLTQSPAIMSASLGERVTMTCTASSSVSSSFLHWYQQKPGSSPQLWIYSTSNLTSGVPARFSGSGSGTSYSLTISSMEAEDAATYYCHQYHHSPYIYTFGGGTKLEIK
B6: parental mouse (KB001) Fab FASEBA, VL variant A56M (Fab, V domains shown)
VH: EVQLKQSGPGLVAPSQSLSITCTVSGFSLSIYSVHWVRQPPGKGLEWLGMIWGGGSSDYNSALKSRLSISKDNSKSQVFLKMNSLQTDDTAMYYCARNGNFYAMDYWGQGTSVTVSS
VL: QIVLTQSPAIMSASLGERVTMTCTASSSVSSSFLHWYQQKPGSSPQLWIYSTSNLMSGVPARFSGSGSGTSYSLTISSMEAEDAATYYCHQYHHSPYIYTFGGGTKLEIK
B7: parental mouse (KB001) Fab FASEBA, VL variant A56S (Fab, V domains shown)
VH: EVQLKQSGPGLVAPSQSLSITCTVSGFSLSIYSVHWVRQPPGKGLEWLGMIWGGGSSDYNSALKSRLSISKDNSKSQVFLKMNSLQTDDTAMYYCARNGNFYAMDYWGQGTSVTVSS
VL: QIVLTQSPAIMSASLGERVTMTCTASSSVSSSFLHWYQQKPGSSPQLWIYSTSNLSSGVPARFSGSGSGTSYSLTISSMEAEDAATYYCHQYHHSPYIYTFGGGTKLEIK
B8: parental mouse (KB001) Fab FASEBA, VL variant L55S (Fab, V domains shown)
VH: EVQLKQSGPGLVAPSQSLSITCTVSGFSLSIYSVHWVRQPPGKGLEWLGMIWGGGSSDYNSALKSRLSISKDNSKSQVFLKMNSLQTDDTAMYYCARNGNFYAMDYWGQGTSVTVSS
VL: QIVLTQSPAIMSASLGERVTMTCTASSSVSSSFLHWYQQKPGSSPQLWIYSTSNSASGVPARFSGSGSGTSYSLTISSMEAEDAATYYCHQYHHSPYIYTFGGGTKLEIK
B9: parental mouse (KB001) Fab FASEBA, VL variant A56N (Fab, V domains shown)
VH: EVQLKQSGPGLVAPSQSLSITCTVSGFSLSIYSVHWVRQPPGKGLEWLGMIWGGGSSDYNSALKSRLSISKDNSKSQVFLKMNSLQTDDTAMYYCARNGNFYAMDYWGQGTSVTVSS
VL: QIVLTQSPAIMSASLGERVTMTCTASSSVSSSFLHWYQQKPGSSPQLWIYSTSNLNSGVPARFSGSGSGTSYSLTISSMEAEDAATYYCHQYHHSPYIYTFGGGTKLEIK
B10: parental mouse (KB001) Fab FASEBA, VL variant A56Q (Fab, V domains shown)
VH: EVQLKQSGPGLVAPSQSLSITCTVSGFSLSIYSVHWVRQPPGKGLEWLGMIWGGGSSDYNSALKSRLSISKDNSKSQVFLKMNSLQTDDTAMYYCARNGNFYAMDYWGQGTSVTVSS
VL: QIVLTQSPAIMSASLGERVTMTCTASSSVSSSFLHWYQQKPGSSPQLWIYSTSNLQSGVPARFSGSGSGTSYSLTISSMEAEDAATYYCHQYHHSPYIYTFGGGTKLEIK
B11: parental mouse (KB001) Fab FASEBA, VL variant L55H (Fab, V domains shown)
VH: EVQLKQSGPGLVAPSQSLSITCTVSGFSLSIYSVHWVRQPPGKGLEWLGMIWGGGSSDYNSALKSRLSISKDNSKSQVFLKMNSLQTDDTAMYYCARNGNFYAMDYWGQGTSVTVSS
VL: QIVLTQSPAIMSASLGERVTMTCTASSSVSSSFLHWYQQKPGSSPQLWIYSTSNHASGVPARFSGSGSGTSYSLTISSMEAEDAATYYCHQYHHSPYIYTFGGGTKLEIK
B12: parental mouse (KB001) Fab FASEBA, VL variant A56P (Fab, V domains shown)
VH: EVQLKQSGPGLVAPSQSLSITCTVSGFSLSIYSVHWVRQPPGKGLEWLGMIWGGGSSDYNSALKSRLSISKDNSKSQVFLKMNSLQTDDTAMYYCARNGNFYAMDYWGQGTSVTVSS
VL: QIVLTQSPAIMSASLGERVTMTCTASSSVSSSFLHWYQQKPGSSPQLWIYSTSNLPSGVPARFSGSGSGTSYSLTISSMEAEDAATYYCHQYHHSPYIYTFGGGTKLEIK
B13: KB001 mouse Fab FASEBA VH K64S (Fab, V domains shown)
VH: EVQLKQSGPGLVAPSQSLSITCTVSGFSLSIYSVHWVRQPPGKGLEWLGMIWGGGSSDYNSALSSRLSISKDNSKSQVFLKMNSLQTDDTAMYYCARNGNFYAMDYWGQGTSVTVSS
VL: QIVLTQSPAIMSASLGERVTMTCTASSSVSSSFLHWYQQKPGSSPQLWIYSTSNLASGVPARFSGSGSGTSYSLTISSMEAEDAATYYCHQYHHSPYIYTFGGGTKLEIK
B14: KB001 mouse Fab FASEBA VH K64M (Fab, V domains shown)
VH: EVQLKQSGPGLVAPSQSLSITCTVSGFSLSIYSVHWVRQPPGKGLEWLGMIWGGGSSDYNSALMSRLSISKDNSKSQVFLKMNSLQTDDTAMYYCARNGNFYAMDYWGQGTSVTVSS
VL: QIVLTQSPAIMSASLGERVTMTCTASSSVSSSFLHWYQQKPGSSPQLWIYSTSNLASGVPARFSGSGSGTSYSLTISSMEAEDAATYYCHQYHHSPYIYTFGGGTKLEIK
B15: KB001 mouse Fab FASEBA VH K64H (Fab, V domains shown)
VH: EVQLKQSGPGLVAPSQSLSITCTVSGFSLSIYSVHWVRQPPGKGLEWLGMIWGGGSSDYNSALHSRLSISKDNSKSQVFLKMNSLQTDDTAMYYCARNGNFYAMDYWGQGTSVTVSS
VL: QIVLTQSPAIMSASLGERVTMTCTASSSVSSSFLHWYQQKPGSSPQLWIYSTSNLASGVPARFSGSGSGTSYSLTISSMEAEDAATYYCHQYHHSPYIYTFGGGTKLEIK
B16: KB001 mouse Fab FASEBA VH K64I (Fab, V domains shown)
VH: EVQLKQSGPGLVAPSQSLSITCTVSGFSLSIYSVHWVRQPPGKGLEWLGMIWGGGSSDYNSALISRLSISKDNSKSQVFLKMNSLQTDDTAMYYCARNGNFYAMDYWGQGTSVTVSS
VL: QIVLTQSPAIMSASLGERVTMTCTASSSVSSSFLHWYQQKPGSSPQLWIYSTSNLASGVPARFSGSGSGTSYSLTISSMEAEDAATYYCHQYHHSPYIYTFGGGTKLEIK
B17: KB001 mouse Fab FASEBA VH K64Y (Fab, V domains shown)
VH: EVQLKQSGPGLVAPSQSLSITCTVSGFSLSIYSVHWVRQPPGKGLEWLGMIWGGGSSDYNSALYSRLSISKDNSKSQVFLKMNSLQTDDTAMYYCARNGNFYAMDYWGQGTSVTVSS
VL: QIVLTQSPAIMSASLGERVTMTCTASSSVSSSFLHWYQQKPGSSPQLWIYSTSNLASGVPARFSGSGSGTSYSLTISSMEAEDAATYYCHQYHHSPYIYTFGGGTKLEIK
B18: KB001 mouse Fab FASEBA VH K64G (Fab, V domains shown)
VH: EVQLKQSGPGLVAPSQSLSITCTVSGFSLSIYSVHWVRQPPGKGLEWLGMIWGGGSSDYNSALGSRLSISKDNSKSQVFLKMNSLQTDDTAMYYCARNGNFYAMDYWGQGTSVTVSS
VL: QIVLTQSPAIMSASLGERVTMTCTASSSVSSSFLHWYQQKPGSSPQLWIYSTSNLASGVPARFSGSGSGTSYSLTISSMEAEDAATYYCHQYHHSPYIYTFGGGTKLEIK
B19: KB001 mouse Fab FASEBA VH K64V (Fab, V domains shown)
VH: EVQLKQSGPGLVAPSQSLSITCTVSGFSLSIYSVHWVRQPPGKGLEWLGMIWGGGSSDYNSALVSRLSISKDNSKSQVFLKMNSLQTDDTAMYYCARNGNFYAMDYWGQGTSVTVSS
VL: QIVLTQSPAIMSASLGERVTMTCTASSSVSSSFLHWYQQKPGSSPQLWIYSTSNLASGVPARFSGSGSGTSYSLTISSMEAEDAATYYCHQYHHSPYIYTFGGGTKLEIK

The target in the first test is HRgpA-6H (Porphyromonas gingivalis) (UniProt P28784). Nature of the test: ELISA, Fab FASEBA supernatant on coated HRgpA-6H. For orientation: An ELISA detects its analyte on a solid surface through an enzyme-linked reagent.
UniProt P28784, sequence (P28784 228-991 limits assumed): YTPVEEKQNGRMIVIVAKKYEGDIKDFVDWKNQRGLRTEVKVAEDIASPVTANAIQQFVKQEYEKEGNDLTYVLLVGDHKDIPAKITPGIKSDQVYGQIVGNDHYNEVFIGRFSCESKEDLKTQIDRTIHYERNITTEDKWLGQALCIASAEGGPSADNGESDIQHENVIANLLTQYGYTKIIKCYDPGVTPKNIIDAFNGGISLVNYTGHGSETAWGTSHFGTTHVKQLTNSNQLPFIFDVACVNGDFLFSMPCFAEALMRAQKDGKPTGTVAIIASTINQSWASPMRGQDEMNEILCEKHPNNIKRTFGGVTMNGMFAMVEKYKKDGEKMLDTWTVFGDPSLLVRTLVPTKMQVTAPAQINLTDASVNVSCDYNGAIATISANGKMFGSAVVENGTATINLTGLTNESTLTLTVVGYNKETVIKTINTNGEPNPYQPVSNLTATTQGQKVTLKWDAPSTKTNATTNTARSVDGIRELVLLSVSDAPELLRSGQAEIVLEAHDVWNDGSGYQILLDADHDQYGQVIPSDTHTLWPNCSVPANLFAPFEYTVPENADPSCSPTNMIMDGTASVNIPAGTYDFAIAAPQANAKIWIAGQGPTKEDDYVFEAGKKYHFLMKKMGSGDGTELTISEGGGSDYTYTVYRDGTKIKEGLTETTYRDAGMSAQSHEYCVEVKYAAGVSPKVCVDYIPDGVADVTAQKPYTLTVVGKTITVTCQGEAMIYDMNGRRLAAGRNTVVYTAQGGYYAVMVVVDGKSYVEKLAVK
For B1, the OD450nm stood at 0.748 OD450nm and the Ratio OD(Variant)/OD(WT) was 0.955 ratio to WT.

For B2, the OD450nm was 0.794 OD450nm and 0.795 OD450nm; the Ratio OD(Variant)/OD(WT) is 0.974 ratio to WT and 0.975 ratio to WT.

As for B3, the OD450nm was found to be 0.662 OD450nm and the Ratio OD(Variant)/OD(WT) is 0.845 ratio to WT.

With B4, the OD450nm was 0.728 OD450nm and 0.734 OD450nm and 0.751 OD450nm; the Ratio OD(Variant)/OD(WT) was 0.893 ratio to WT and 0.9 ratio to WT and 0.921 ratio to WT.

In the case of B5, the OD450nm was determined as 0.731 OD450nm and the Ratio OD(Variant)/OD(WT) is 0.896 ratio to WT.

With B6, the OD450nm is 0.802 OD450nm and 0.701 OD450nm; the Ratio OD(Variant)/OD(WT) is 0.983 ratio to WT and 0.86 ratio to WT.

In the case of B7, the OD450nm is 0.772 OD450nm and 0.751 OD450nm and 0.774 OD450nm; the Ratio OD(Variant)/OD(WT) is 0.947 ratio to WT and 0.921 ratio to WT and 0.949 ratio to WT.

As for B8, the OD450nm is 0.655 OD450nm and the Ratio OD(Variant)/OD(WT) is 0.836 ratio to WT.

For B9, the OD450nm is 0.712 OD450nm and 0.775 OD450nm; the Ratio OD(Variant)/OD(WT) was 0.873 ratio to WT and 0.95 ratio to WT.

Consider B10, for which the OD450nm was 0.705 OD450nm and the Ratio OD(Variant)/OD(WT) was 0.865 ratio to WT.

Consider B11, for which the OD450nm turned out to be 0.64 OD450nm and the Ratio OD(Variant)/OD(WT) is 0.817 ratio to WT.

As for B12, the OD450nm worked out at 0.748 OD450nm and the Ratio OD(Variant)/OD(WT) is 0.917 ratio to WT.

The next test shares this target. The test is described as follows: ELISA on coated HRgpA-6H.
Regarding B13, the OD450nm was found to be 0.808 and the Ratio OD(Variant)/OD(WT) turned out to be 0.977.

For B14, the OD450nm was 0.799 and 0.757 and 0.78; the Ratio OD(Variant)/OD(WT) is 0.966 and 0.915 and 0.943.

As for B15, the OD450nm was found to be 0.752 and the Ratio OD(Variant)/OD(WT) was 0.909.

As for B16, the OD450nm was 0.743 and 0.756 and 0.715; the Ratio OD(Variant)/OD(WT) was 0.898 and 0.914 and 0.865.

B17: the OD450nm came out at 0.763 and the Ratio OD(Variant)/OD(WT) was found to be 0.923.

As for B18, the OD450nm worked out at 0.806 and the Ratio OD(Variant)/OD(WT) is 0.975.

Turning to B19, the OD450nm is 0.715 and 0.714; the Ratio OD(Variant)/OD(WT) is 0.865 and 0.863.
